Reference: paper PMC10397247
Values belong to the binder of their own block, whether it stands above or below them.

Experiments:
4H2444-bH = biological target: T1, 4H2444-bH; test: two-hybrid library CCNG1;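 also: natural log of median RNA to DNA barcode read ratio; higher means stronger binding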
T1 chain: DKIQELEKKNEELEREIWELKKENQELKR

4H2518-bH = biological target: T2, 4H2518-bH; test: two-hybrid library CCNG1;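 also: natural log of median RNA to DNA barcode read ratio; higher means stronger binding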
T2 chain: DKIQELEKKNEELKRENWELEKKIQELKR

4H2585-bH = biological target: T3, 4H2585-bH; test: two-hybrid library CCNG1;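 also: natural log of median RNA to DNA barcode read ratio; higher means stronger binding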
T3 chain: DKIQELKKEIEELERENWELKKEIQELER

4H264-bH = biological target: T4, 4H264-bH; test: two-hybrid library CCNG1;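 also: natural log of median RNA to DNA barcode read ratio; higher means stronger binding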
T4 chain: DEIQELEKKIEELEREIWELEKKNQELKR

4H2760-bH = biological target: T5, 4H2760-bH; test: two-hybrid library CCNG1;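 also: natural log of median RNA to DNA barcode read ratio; higher means stronger binding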
T5 chain: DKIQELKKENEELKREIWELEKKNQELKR

4H2859-bH = biological target: T6, 4H2859-bH; test: two-hybrid library CCNG1;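 also: natural log of median RNA to DNA barcode read ratio; higher means stronger binding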
T6 chain: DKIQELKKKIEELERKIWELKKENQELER

4H2931-bH = biological target: T7, 4H2931-bH; test: two-hybrid library CCNG1
T7 chain: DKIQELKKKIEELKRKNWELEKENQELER

4H3041-bH = biological target: T8, 4H3041-bH; test: two-hybrid library CCNG1
T8 chain: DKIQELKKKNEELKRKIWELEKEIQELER

4H3297-bH = biological target: T9, 4H3297-bH; test: two-hybrid library CCNG1
T9 chain: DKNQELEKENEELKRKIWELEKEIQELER

4H3364-bH = biological target: T10, 4H3364-bH; test: two-hybrid library CCNG1
T10 chain: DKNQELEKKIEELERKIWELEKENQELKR

4H3381-bH = biological target: T11, 4H3381-bH; test: two-hybrid library CCNG1
T11 chain: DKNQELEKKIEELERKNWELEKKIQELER

4H349-bH = biological target: T12, 4H349-bH; test: two-hybrid library CCNG1
T12 chain: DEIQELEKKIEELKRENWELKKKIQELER

4H56-bH = biological target: T13, 4H56-bH; test: two-hybrid library CCNG1
T13 chain: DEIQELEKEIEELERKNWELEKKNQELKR

4H730-bH = biological target: T14, 4H730-bH; test: two-hybrid library CCNG1
T14 chain: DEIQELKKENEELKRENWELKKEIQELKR

4H796-bH = biological target: T15, 4H796-bH; test: two-hybrid library CCNG1
T15 chain: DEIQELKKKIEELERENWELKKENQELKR

4H932-bH = biological target: T16, 4H932-bH; test: two-hybrid library CCNG1
T16 chain: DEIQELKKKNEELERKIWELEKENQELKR

4H949-bH = biological target: T17, 4H949-bH; test: two-hybrid library CCNG1
T17 chain: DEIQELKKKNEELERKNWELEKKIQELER

O15 = biological target: T18, O15; test: two-hybrid library CC0; details: mean of both orientations
T18 chain: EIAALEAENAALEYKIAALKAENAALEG

O16 = biological target: T19, O16; test: two-hybrid library CC0; details: mean of both orientations
T19 chain: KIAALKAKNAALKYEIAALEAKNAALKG

O2 = biological target: T20, O2; test: two-hybrid library CC0; details: mean of both orientations
T20 chain: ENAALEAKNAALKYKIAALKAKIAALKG

O3 = biological target: T21, O3; test: two-hybrid library CC0; details: mean of both orientations
T21 chain: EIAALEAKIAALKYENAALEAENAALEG

O4 = biological target: T22, O4; test: two-hybrid library CC0; details: mean of both orientations
T22 chain: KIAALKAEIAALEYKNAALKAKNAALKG

O5 = biological target: T23, O5; test: two-hybrid library CC0; details: mean of both orientations
T23 chain: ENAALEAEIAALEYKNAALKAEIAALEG

O6 = biological target: T24, O6; test: two-hybrid library CC0; details: mean of both orientations
T24 chain: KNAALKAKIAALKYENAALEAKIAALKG

O7 = biological target: T25, O7; test: two-hybrid library CC0; details: mean of both orientations
T25 chain: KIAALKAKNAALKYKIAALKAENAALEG

O8 = biological target: T26, O8; test: two-hybrid library CC0; details: mean of both orientations
T26 chain: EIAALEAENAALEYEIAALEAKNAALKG

O9 = biological target: T27, O9; test: two-hybrid library CC0; details: mean of both orientations
T27 chain: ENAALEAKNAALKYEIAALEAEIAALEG

4H56-bN = biological target: T28, 4H56-bN; test: two-hybrid library CCNG1
T28 chain: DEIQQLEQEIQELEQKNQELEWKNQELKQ

4H730-bN = biological target: T29, 4H730-bN; test: two-hybrid library CCNG1
T29 chain: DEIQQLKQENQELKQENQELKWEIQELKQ

4H796-bN = biological target: T30, 4H796-bN; test: two-hybrid library CCNG1
T30 chain: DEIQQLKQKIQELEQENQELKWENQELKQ

4H932-bN = biological target: T31, 4H932-bN; test: two-hybrid library CCNG1
T31 chain: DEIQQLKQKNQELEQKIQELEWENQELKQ

4H949-bN = biological target: T32, 4H949-bN; test: two-hybrid library CCNG1
T32 chain: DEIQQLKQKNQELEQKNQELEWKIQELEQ

O13 = biological target: T33, O13; test: two-hybrid library CCNG1
T33 chain: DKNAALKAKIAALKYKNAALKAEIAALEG

P8A-bN = biological target: T34, P8A-bN; test: two-hybrid library CCNG1
T34 chain: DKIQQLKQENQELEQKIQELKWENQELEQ

4H3427-bN = biological target: T35, 4H3427-bN; test: two-hybrid library CCNG1
T35 chain: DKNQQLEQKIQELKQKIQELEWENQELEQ

4H346-bN = biological target: T36, 4H346-bN; test: two-hybrid library CCNG1
T36 chain: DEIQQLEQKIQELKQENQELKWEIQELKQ

4H3782-bN = biological target: T37, 4H3782-bN; test: two-hybrid library CCNG1
T37 chain: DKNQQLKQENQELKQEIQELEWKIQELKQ

4H3855-bN = biological target: T38, 4H3855-bN; test: two-hybrid library CCNG1
T38 chain: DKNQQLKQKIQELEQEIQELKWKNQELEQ

4H3926-bN = biological target: T39, 4H3926-bN; test: two-hybrid library CCNG1
T39 chain: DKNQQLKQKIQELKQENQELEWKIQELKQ

4H4001-bN = biological target: T40, 4H4001-bN; test: two-hybrid library CCNG1
T40 chain: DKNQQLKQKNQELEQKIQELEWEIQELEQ

4H4073-bN = biological target: T41, 4H4073-bN; test: two-hybrid library CCNG1
T41 chain: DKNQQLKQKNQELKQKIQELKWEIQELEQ

4H454-bN = biological target: T42, 4H454-bN; test: two-hybrid library CCNG1
T42 chain: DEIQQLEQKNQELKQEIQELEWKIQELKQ

4H457-bN = biological target: T43, 4H457-bN; test: two-hybrid library CCNG1
T43 chain: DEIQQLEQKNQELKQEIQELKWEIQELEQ

4H568-bN = biological target: T44, 4H568-bN; test: two-hybrid library CCNG1
T44 chain: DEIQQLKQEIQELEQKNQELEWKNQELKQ

4H575-bN = biological target: T45, 4H575-bN; test: two-hybrid library CCNG1
T45 chain: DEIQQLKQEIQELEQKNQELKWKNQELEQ

4H607-bN = biological target: T46, 4H607-bN; test: two-hybrid library CCNG1
T46 chain: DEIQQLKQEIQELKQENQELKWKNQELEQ

4H683-bN = biological target: T47, 4H683-bN; test: two-hybrid library CCNG1
T47 chain: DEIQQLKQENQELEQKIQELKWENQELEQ

4H687-bN = biological target: T48, 4H687-bN; test: two-hybrid library CCNG1
T48 chain: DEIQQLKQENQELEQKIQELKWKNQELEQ

4H717-bA = biological target: T49, 4H717-bA; test: two-hybrid library CCNG1
T49 chain: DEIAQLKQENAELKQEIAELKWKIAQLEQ

4H717-bN = biological target: T50, 4H717-bN; test: two-hybrid library CCNG1
T50 chain: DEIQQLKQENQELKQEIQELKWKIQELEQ

4H72-bN = biological target: T51, 4H72-bN; test: two-hybrid library CCNG1
T51 chain: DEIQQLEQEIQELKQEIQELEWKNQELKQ

4H754-bN = biological target: T52, 4H754-bN; test: two-hybrid library CCNG1
T52 chain: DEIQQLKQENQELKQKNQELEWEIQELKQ

4H780-bN = biological target: T53, 4H780-bN; test: two-hybrid library CCNG1
T53 chain: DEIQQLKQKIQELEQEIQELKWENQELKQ

4H797-bN = biological target: T54, 4H797-bN; test: two-hybrid library CCNG1
T54 chain: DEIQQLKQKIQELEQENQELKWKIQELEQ

4H855-bN = biological target: T55, 4H855-bN; test: two-hybrid library CCNG1
T55 chain: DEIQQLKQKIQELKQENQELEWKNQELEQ

4H883-bN = biological target: T56, 4H883-bN; test: two-hybrid library CCNG1
T56 chain: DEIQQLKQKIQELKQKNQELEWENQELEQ

4H908-bN = biological target: T57, 4H908-bN; test: two-hybrid library CCNG1
T57 chain: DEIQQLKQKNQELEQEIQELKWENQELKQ

4H918-bN = biological target: T58, 4H918-bN; test: two-hybrid library CCNG1
T58 chain: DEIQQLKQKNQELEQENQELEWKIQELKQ

4H953-bN = biological target: T59, 4H953-bN; test: two-hybrid library CCNG1
T59 chain: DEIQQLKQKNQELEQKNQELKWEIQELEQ

4H967-bN = biological target: T60, 4H967-bN; test: two-hybrid library CCNG1
T60 chain: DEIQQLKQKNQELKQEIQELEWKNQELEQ

4H968-bN = biological target: T61, 4H968-bN; test: two-hybrid library CCNG1
T61 chain: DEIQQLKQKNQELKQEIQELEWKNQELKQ

4H363-bA = biological target: T62, 4H363-bA; test: two-hybrid library CCNG1
T62 chain: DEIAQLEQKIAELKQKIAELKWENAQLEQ

4H3907-bA = biological target: T63, 4H3907-bA; test: two-hybrid library CCNG1
T63 chain: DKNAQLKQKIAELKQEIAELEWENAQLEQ

4H3961-bA = biological target: T64, 4H3961-bA; test: two-hybrid library CCNG1
T64 chain: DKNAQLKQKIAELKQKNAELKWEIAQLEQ

4H470-bA = biological target: T65, 4H470-bA; test: two-hybrid library CCNG1
T65 chain: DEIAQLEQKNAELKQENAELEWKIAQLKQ

interaction score (4H56-bN): 0.863
interaction score (4H730-bN): 0.387
interaction score (4H796-bN): 0.00289
interaction score (4H932-bN): -0.791
interaction score (4H949-bN): -1.76
interaction score (O13): -0.5
interaction score (P8A-bN): -1.19
B3: 4H56-bN (peptide)
chain: DEIQQLEQEIQELEQKNQELEWKNQELKQ

interaction score (4H3427-bN): -0.0454
interaction score (4H346-bN): -2.04
interaction score (4H3782-bN): -0.306
interaction score (4H3855-bN): -0.838
interaction score (4H3926-bN): -1.1
interaction score (4H4001-bN): -1
interaction score (4H4073-bN): -1.1
interaction score (4H454-bN): -0.734
interaction score (4H457-bN): -0.939
interaction score (4H568-bN): -0.0377
interaction score (4H575-bN): -1.57
interaction score (4H607-bN): -0.874
interaction score (4H683-bN): -2.33
interaction score (4H687-bN): -0.849
interaction score (4H717-bA): -0.117
interaction score (4H717-bN): -0.704
interaction score (4H72-bN): -1.54
interaction score (4H754-bN): -1.39
interaction score (4H780-bN): -1.3
interaction score (4H797-bN): -0.295
interaction score (4H855-bN): -0.804
interaction score (4H883-bN): -1.75
interaction score (4H908-bN): -0.725
interaction score (4H918-bN): -1.53
interaction score (4H953-bN): -0.667
interaction score (4H967-bN): -1.07
interaction score (4H968-bN): -1.97
interaction score (O13): -2.44
B4: 4H3427-bN (peptide)
chain: DKNQQLEQKIQELKQKIQELEWENQELEQ

More lines, now with the values behind:

B1: 4H2444-bH (peptide)
chain: DKIQELEKKNEELEREIWELKKENQELKR
interaction score (4H2444-bH): 1.48
interaction score (4H2518-bH): 0.571
interaction score (4H2585-bH): 0.868
interaction score (4H264-bH): -2.12
interaction score (4H2760-bH): 0.592
interaction score (4H2859-bH): 0.771
interaction score (4H2931-bH): 0.0488
interaction score (4H3041-bH): -0.0348
interaction score (4H3297-bH): 0.285
interaction score (4H3364-bH): 0.375
interaction score (4H3381-bH): 0.313
interaction score (4H349-bH): -0.694
interaction score (4H56-bH): -0.284
interaction score (4H730-bH): -0.91
interaction score (4H796-bH): 0.0566
interaction score (4H932-bH): 0.176
interaction score (4H949-bH): -0.478

B2: O15 (peptide)
chain: EIAALEAENAALEYKIAALKAENAALEG
interaction score (O15): -2.64
interaction score (O16): 1.2
interaction score (O2): -2.7
interaction score (O3): -2.8
interaction score (O4): -2.54
interaction score (O5): -2.15
interaction score (O6): -2.79
interaction score (O7): -1.87
interaction score (O8): -2.41
interaction score (O9): -2.72

B5: 4H363-bA (peptide)
chain: DEIAQLEQKIAELKQKIAELKWENAQLEQ
interaction score (4H363-bA): 1.08
interaction score (4H3907-bA): 1.32
interaction score (4H3961-bA): 0.154
interaction score (4H470-bA): -2.31
